According to patent publication US20210403527A1:

Key:
[1] = target: HLA-A2/NY-ESO-1 (157-165) complex on cells (human); test: cell-based or functional assay
[2] = target: composite TCR 001 (human variable domains, mouse constant domains) (mouse) (UniProt P01849); test: Flow cytometry, dextramer against CD8a, sorted T cells expressing composite TCR 001 after 12 days of post-sort expansion, left panel
[3] = target: NY-ESO-1 peptide on HLA-A*02:01 (human); test: AP-1 luciferase reporter; Jurkat J.RT3.T3.5 with CD8A/B; HLA-A2+ 293T cells pulsed with 100 uM NY-ESO-1 peptide; full-length, on cells

composite TCR 001 (human variable domains, mouse constant domains) (mouse), sequence (P01849 other isoform, or with tags, fused parts or gaps, chain 1 of 2): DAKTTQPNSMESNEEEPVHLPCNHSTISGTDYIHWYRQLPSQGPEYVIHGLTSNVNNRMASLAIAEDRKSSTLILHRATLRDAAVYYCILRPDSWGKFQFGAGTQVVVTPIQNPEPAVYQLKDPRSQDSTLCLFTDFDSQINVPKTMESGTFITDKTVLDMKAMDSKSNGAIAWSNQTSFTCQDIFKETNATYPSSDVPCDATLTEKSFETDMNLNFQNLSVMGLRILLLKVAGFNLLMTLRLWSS
composite TCR 001 (human variable domains, mouse constant domains) (mouse), sequence (P01852 other isoform, or with tags, fused parts or gaps, chain 2 of 2, further chain): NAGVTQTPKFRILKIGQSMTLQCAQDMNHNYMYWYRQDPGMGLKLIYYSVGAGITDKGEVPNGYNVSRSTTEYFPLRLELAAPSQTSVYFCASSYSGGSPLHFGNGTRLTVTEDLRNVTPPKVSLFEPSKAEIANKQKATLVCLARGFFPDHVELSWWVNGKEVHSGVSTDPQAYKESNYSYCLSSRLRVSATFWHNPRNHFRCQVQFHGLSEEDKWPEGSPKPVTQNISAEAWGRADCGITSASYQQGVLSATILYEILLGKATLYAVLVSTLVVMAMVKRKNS

patient-derived NY-ESO-1 specific comparator TCR 1G4
Signal to Noise (S/N) ratio (RLU to peptide pulsed APCs divided by RLU to non-pulsed APCs), AP-1 luciferase reporter T cells [1]: 6.3

Control Dextramer (peptide-MHC)
Dex+ CD8+ (share of cells in the gate) [2]: 0.52

1G4
signal to noise ratio (RLU with peptide-pulsed APCs / RLU with non-pulsed APCs) [3]: 6.3
